As a reminder, the Kd is the equilibrium constant for the complex coming apart. As a reminder, the koff is a measure of how fast the partners let go of each other. For orientation: kon means the rate constant with which the complex forms.

We go through 15 molecules from patent US20080226630A1 (SYMPHOGEN A S, published 2008).

Residue numbers refer to the chain shown, from its start.

To fix the notation:
T1: recombinant RSV protein G, G(B): residues 66-292 of strain 18537 (human respiratory syncytial virus …, UniProt P20896 66-292)
T1 construct: also called soluble recombinant G protein; recombinant protein G
T1 sequence: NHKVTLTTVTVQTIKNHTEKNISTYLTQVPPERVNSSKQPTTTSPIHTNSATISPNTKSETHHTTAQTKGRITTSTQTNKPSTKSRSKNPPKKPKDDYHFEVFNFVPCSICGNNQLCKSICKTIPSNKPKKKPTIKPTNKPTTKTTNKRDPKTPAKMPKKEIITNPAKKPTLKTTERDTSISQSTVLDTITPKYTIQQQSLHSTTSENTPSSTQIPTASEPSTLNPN

T2: recombinant human fractalkine (CX3CL1; R&D systems) (human, UniProt P78423 25-100)
T2 sequence (looked up): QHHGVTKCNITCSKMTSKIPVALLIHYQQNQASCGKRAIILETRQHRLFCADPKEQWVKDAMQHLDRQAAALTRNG

B1: Fab fragment of antibody 838 (Fab)
VH: QVQLVESGGGVVQPGTSLRLSCAASGFTFSTFGMHWVRQAPGKGLEWVAVISYDGNKKYYADSVKGRFTISRDNSKNTLYLQVNSLRVEDTAVYYCAAQTPYFNESSGLVPDWGQGTLVTVSS
light: DIQMTQSPSSLSASVGDRVSITCRASQGISNYLAWYQQKPGKVPKLLIYAASTLQSGVPSRFSGSGSGTDFTLTISSLQPEDVATYYCQKYNSAPQTFGQGTKVEIKRTVAAPSVFIFPPSDEQLKSGTASVVCLLNNFYPREAKVQWKVDNALQSGNSQESVTEQDSKDSTYSLSSTLTLSKADYEKHKVYACEVTHQGLSSPVTKSFNRGEC
notes: also called Fab clone 838
B2: Fab fragment of antibody 859 (Fab)
VH: QVQLVESGGGVVQPGRSLRLSCAVSGSSFSKYGIHWVRQAPGKGLEWVAVISYDGSKKYFTDSVKGRFTIARDNSQNTVFLQMNSLRAEDTAVYYCATGGGVNVTSWSDVEHSSSLGYWGLGTLVTVSS
light: B1 light with S20T, S30R, I48V, Y49F, K90R, Q96L, Q100G
notes: also called Fab clone 859
B3: Fab fragment of antibody 853 (Fab)
VH: EVQLVQSGAEVKKPGQSLKISCKTSGYIFTNYWIGWVRQRPGKGLEWMGVIFPADSDARYSPSFQGQVTISADKSIGTAYLQWSSLKASDTAIYYCARPKYYFDSSGQFSEMYYFDFWGQGTLVTVSS
light: EIVLTQSPGTLSLSPGERATLSCRASQSVSSNYLAWYQQKPGQAPRLLIYGASSRAAGMPDRFSGSGSGTDFTLTISRLEPEDFAVYYCQQYGNSPLTFGGGTEVEIKRTVAAPSVFIFPPSDEQLKSGTASVVCLLNNFYPREAKVQWKVDNALQSGNSQESVTEQDSKDSTYSLSSTLTLSKADYEKHKVYACEVTHQGLSSPVTKSFNRGEC
notes: also called Fab clone 853
B4: Fab fragment of antibody 811 (Fab)
VH: QVQLVQSGAVVETPGASVKVSCKASGYIFGNYYIHWVRQAPGQGLEWMAVINPNGGSTTSAQKFQDRITVTRDTSTTTVYLEVDNLRSEDTATYYCARQRSVTGGFDAWLLIPDASNTWGQGTMVTVSS
light: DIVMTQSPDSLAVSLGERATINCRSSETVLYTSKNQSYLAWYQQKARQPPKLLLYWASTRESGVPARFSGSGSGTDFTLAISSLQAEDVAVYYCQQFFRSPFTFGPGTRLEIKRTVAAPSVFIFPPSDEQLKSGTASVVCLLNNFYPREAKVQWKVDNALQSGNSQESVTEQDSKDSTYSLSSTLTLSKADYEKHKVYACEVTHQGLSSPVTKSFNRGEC
notes: also called Fab clone 811
B5: Fab fragment of antibody 796 (Fab)
VH: QVQLVESGGGVVQPGRSLRLSCAASGFSFSHFGMHWVRQVPGKGLEWVAIISYDGNNVHYADSVKGRFTISRDNSKNTLFLQMNSLRDDDTGVYYCAKDDVATDLAAYYYFDVWGRGTLVTVSS
light: DIVMTQTPLSLSVTPGQPASISCRSSQSLLRSDGKTFLYWYLQKPGQSPQPLMYEVSSRFSGVPDRFSGSGSGADFTLNISRVETEDVGIYYCMQGLKIRRTFGPGTKVEIKRTVAAPSVFIFPPSDEQLKSGTASVVCLLNNFYPREAKVQWKVDNALQSGNSQESVTEQDSKDSTYSLSSTLTLSKADYEKHKVYACEVTHQGLSSPVTKSFNRGEC
notes: also called Fab clone 796
B6: Fab fragment of antibody 816 (Fab)
VH: EVQLLESGGGLVQPGGSLRLSCVASGFTFSTYAMTWVRQAPGKGLEWVSVIRASGDSEIYADSVRGRFTISRDNSKNTVFLQMDSLRVEDTAVYFCANIGQRRYCSGDHCYGHFDYWGQGTLVTVSS
light: DIVMTQSPLSLPVTPGEPASISCRSSQSLLHSDGRYYVDWYLQKPGQSPHLLIYLASNRASGVPDRFTGSGSGTDFTLKISRVEAEDVGVYYCMQGLHTPWTFGQGTKVDIKRTVAAPSVFIFPPSDEQLKSGTASVVCLLNNFYPREAKVQWKVDNALQSGNSQESVTEQDSKDSTYSLSSTLTLSKADYEKHKVYACEVTHQGLSSPVTKSFNRGEC
B7: antibody 816 (clone 816) (antibody, human IgG1, kappa, V domains shown)
VH: B6 VH
VL: DIVMTQSPLSLPVTPGEPASISCRSSQSLLHSDGRYYVDWYLQKPGQSPHLLIYLASNRASGVPDRFTGSGSGTDFTLKISRVEAEDVGVYYCMQGLHTPWTFGQGTKVDIKR
B8: Fab fragment of antibody 858 (Fab, V domains shown)
VH: QVQLVQSGAEVKKPGSSVKVSCKASGGSFDGYTISWLRQAPGQGLEWMGRVVPTLGFPNYAQKFQGRVTVTADRSTNTAYLELSRLTSEDTAVYYCARMNLGSHSGRPGFDMWGQGTLVTVSS
VL: DIQMTQSPSSVSASVGDRVTITCQASQDISNYLNWYQQKPGKAPKLLIFDATKLETGVPTRFIGSGSGTDFTVTITSLQPEDVATYYCQHFANLPYTFGQGTKLEIKR
notes: also called Fab clone 858
B9: Fab fragment of antibody 818 (Fab, V domains shown)
VH: QVTLRESGPAVVKPTETLTLTCAFSGFSLNAGRVGVSWIRQPPGQAPEWLARIDWDDDKAFRTSLKTRLSISKDSSKNQVVLTLSNMDPADTATYYCARTQVFASGGYYLYYLDHWGQGTLVTVSS
VL: DIQMTQSPSSLSASVGDRVTITCRASQTIASYVNWYQQKPGRAPSLLIYAASNLQSGVPPRFSGSGSGTDFTLTISGLQPDDFATYYCQQSYSYRALTFGGGTKVEIKR
B10: Fab fragment of antibody 825 (Fab, V domains shown)
VH: QVQLVQSGAEVKKPGASVKVSCKVSGYTFTSNGLSWVRQAPGQGFEWLGWISASSGNKKYAPKFQGRVTLTTDISTSTAYMELRSLRSDDTAVYYCAKDGGTYVPYSDAFDFWGQGTMVTVSS
VL: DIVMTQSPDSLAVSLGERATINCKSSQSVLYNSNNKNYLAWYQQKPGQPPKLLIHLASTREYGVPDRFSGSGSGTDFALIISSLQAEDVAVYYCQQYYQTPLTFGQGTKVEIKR
B11: Fab fragment of antibody 831 (Fab, V domains shown)
VH: QVQLVQSGAEVKKPGASVKVSCKASANIFTYAMHWVRQAPGQRLEWMGWINVGNGQTKYSQRFQGRVTITRDTSATTAYMELSTLRSEDTAVYYCARRASQYGEVYGNYFDYWGQGTLVTVSS
VL: DIQMTQSPSTLSASVGDRLTITCRASQNIYNWLAWYQQKPGKAPKLLIYDASTLESGVPSRFSGSGSGTEFTLTISSLQPDDFATYYCQQYNSLSPTFGQGTKVEIKR
notes: also called Fab clone 831
B12: Fab fragment of antibody 735 (Fab, V domains shown)
VH: QVQLQESGPGLVKPSETLSLTCTVSNGAIGDYDWSWIRQSPGKGLEWIGNINYRGNTNYNPSLKSRVTMSLRTSTMQFSLKLSSATAADTAVYYCARDVGYGGGQYFAMDVWSPGTTVTVSS
VL: EIVLTQSPATLSLSPGERATLSCRASQSVNSHLAWYQQKPGQAPRLLIYNTFNRVTGIPARFSGSGSGTDFTLTISSLATEDFGVYYCQQRSNWPPALTFGGGTKVEIKR
notes: also called Fab clone 735
B13: Fab fragment of antibody 819 (Fab, V domains shown)
VH: QVQLQESGPGLVKPSQTLSLTCTVSSGAISGADYYWSWIRQPPGKGLEWVGFIYDSGSTYYNPSLRSRVTISIDTSKKQFSLKLTSVTAADTAVYYCARDLGYGGNSYSHSYYYGLDVWGRGTTVTVSS
VL: EIVLTQSPATLSLSPGERATLSCRASQSVSSSLAWYQQTPGQAPRLLIYDASYRVTGIPARFSGSGSGIDFTLTISSLEPEDFAVYYCQQRSNWPPGLTFGGGTKVEIKR
B14: Fab fragment of antibody 817 (Fab, V domains shown)
VH: QVQLVESGGGVVQPGRSLRLSCAASGFGFNTHGMHWVRQAPGKGLEWLSIISLDGIKTHYADSVKGRFTISRDNSKNTVFLQLSGLRPEDTAVYYCAKDHIGGTNAYFEWTVPFDGWGQGTLVTVSS
VL: EIVMTQSPATLSASPGERATLSCWASQTIGGNLAWYQQKPGQAPRLLIYGASTRATGVPARFSGSGSGTEFTLAISSLQSEDFAVYYCQQYKNWYTFGQGTKLELKR
notes: also called Fab clone 817
B15: Fab fragment of antibody 810 (Fab, V domains shown)
VH: QVQLVQSGAEVKKSGSSVKVSCRASGGTFGNYAINWVRQAPGQGLEWVGRIIPVFDTTNYAQKFQGRVTITADRSTNTAIMQLSSLRPQDTAMYYCLRGSTRGWDTDGFDIWGQGTMVTVSS
VL: NIQMTQSPSAMSASVGDRVTITCRASQGISNYLVWFQQKPGKVPKRLIYAASSLQSGVPSRFSGSGSGTEFTLTISSLQPEDFATYYCLQHNISPYTFGQGTKLETKR
notes: also called Fab clone 810

The first experiment deals with T1, recombinant RSV protein G, G(B): …. Kind of experiment: SPR Biacore 3000, Fab over amine-coupled recombinant protein G. Background: SPR reads the build-up and loss of mass on a sensor chip optically.
On to B1, for which the Kd was 0.19 nM, the off-rate constant (koff) was determined as 5.06e-05 s⁻¹, the kon was 264000 M⁻¹ s⁻¹ and the t1/2 amounted to 3.83 h.

As to B2, the dissociation constant Kd stood at 0.12 nM, the koff worked out at 4.63e-05 s⁻¹, the kon came to 380000 M⁻¹ s⁻¹ and the t1/2 came to 4.17 h.

B3: the Kd was found to be 0.79 nM, the koff came out at 0.0014 s⁻¹, the on-rate (kon) turned out to be 1.77e+06 M⁻¹ s⁻¹ and the t1/2 came out at 0.138 h.

For B4, the Kd was determined as 0.34 nM, the koff came out at 0.000171 s⁻¹, the kon is 498000 M⁻¹ s⁻¹ and the t1/2 was 1.13 h.

In the case of B5, the Kd is 0.48 nM, the koff amounted to 0.000403 s⁻¹, the kon is 833000 M⁻¹ s⁻¹ and the t1/2 was 0.478 h.

As for B6, the Kd amounted to 0.09 nM, the koff is 0.000178 s⁻¹, the association rate constant (kon) worked out at 2.02e+06 M⁻¹ s⁻¹ and the t1/2 worked out at 1.08 h.

For another experiment, the target named is T2, recombinant human fractalkine (CX3CL1; …). Briefly: ELISA on recombinant human fractalkine. On the technique in general: In an ELISA, binding on a coated surface is turned into a signal by an enzyme label.
For the molecule B7, the binding result is reported as “no binding”.

For another experiment, the target named is RSV protein F (recombinant or purified F protein) (human respiratory syncytial virus, …). Briefly: SPR Biacore 3000, Fab over amine-coupled recombinant protein F.
On to B8, for which the Kd was found to be 0.007 nM, the koff came to 3.4e-06 s⁻¹, the kon came to 497000 M⁻¹ s⁻¹ and the t1/2 came to 56.7 h.

On to B9, for which the Kd is 0.115 nM, the koff amounted to 2.2e-05 s⁻¹, the kon stood at 192000 M⁻¹ s⁻¹ and the t1/2 was found to be 8.83 h.

For B10, the dissociation constant Kd is 0.195 nM, the koff was determined as 0.00015 s⁻¹, the kon amounted to 772000 M⁻¹ s⁻¹ and the t1/2 was found to be 1.28 h.

Regarding B11, the Kd was determined as 1.13 nM, the koff worked out at 0.00042 s⁻¹, the kon was 372000 M⁻¹ s⁻¹ and the t1/2 stood at 0.467 h.

As for B12, the Kd amounted to 0.226 nM, the koff came out at 9.18e-05 s⁻¹, the kon came out at 407000 M⁻¹ s⁻¹ and the t1/2 stood at 2.17 h.

In the case of B13, the equilibrium dissociation constant (Kd) came out at 0.14 nM, the koff came out at 4.99e-05 s⁻¹, the kon was determined as 356000 M⁻¹ s⁻¹ and the t1/2 is 3.83 h.

Take B14: the Kd was 0.82 nM, the koff came to 7.54e-05 s⁻¹, the kon stood at 92000 M⁻¹ s⁻¹ and the t1/2 was 2.5 h.

Take B15: the dissociation constant (Kd) came out at 0.2 nM, the koff is 0.000348 s⁻¹, the kon was 1.74e+06 M⁻¹ s⁻¹ and the t1/2 was 0.55 h.
